From PMC6467385, “ER intrabody-mediated inhibition of interferon α secretion by mouse macrophages and dendritic cells” (PLoS ONE, 2019)

Target: T1, mouse IFNα4 without tag (Mus musculus, UniProt P07351)
T1 construct: Expressed with an N-terminal mouse IgG signal peptide (HVM06_MOUSE) and a C-terminal TEV site before the tags; Produced in a glycosylation deficient cell line; also called Interferon α; not shown: Twin-Strep-tag, C-terminal, cleaved; His8, C-terminal, cleaved
Experiment: BLI; Octet Red96; αIFNα-ab covalently coupled (EDC/NHS) to Ni-NTA tips, increasing concentrations of IFNα4 in solution; kinetic buffer 0.2% BSA in PBS with 0.05% Tween 20; association 800 s, dissociation 1800 s; 1:1 interaction model
Details: both partners purified

T1 sequence (P07351 25-186): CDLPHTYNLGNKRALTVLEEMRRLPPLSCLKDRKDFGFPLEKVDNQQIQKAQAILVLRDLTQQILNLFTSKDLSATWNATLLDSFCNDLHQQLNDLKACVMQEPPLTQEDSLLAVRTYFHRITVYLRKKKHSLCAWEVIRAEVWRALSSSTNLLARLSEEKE

- Kd: 38.6 nM
- koff: 0.00023 s⁻¹
- kon: 5970 M⁻¹ s⁻¹
B1: soluble scFv αIFNα-ab (scFv, V domains shown)
VH: EVQLVESGGGLVRPGGSLKLSCTASGFTFSDFDMAWVRQAPTRGLEWVASISSGPANTHYRGSVRGRFTGSRNDAKSTLYLQMDSLRSEDTATYYCARPFGSGYYFDYWGQGVVVTVSS
VL: DTVLTQSPALAVSLGQRVTISCKASESVSSSTSNYMHWYQQKPGQRPKLLIYLASNLESGVPARFSGSGSGTDFILNIDPVEADDVATYFCQQSWNDPPTFGSGTKVELK
notes: VH of the rat anti-mouse IFNα hybridoma antibody 4EA1; linker, printed as (GGGGS)3; VL (kappa) of the rat anti-mouse IFNα hybridoma antibody 4EA1; Order VH-(GGGGS)3-VL; made with a signal peptide (secreted); also called anti-IFNα scFv; soluble form of the intrabody; not shown: His6, C-terminal, kept
